The text below walks through data of the supplement of paper PMC9112550, “Optimization of the antimicrobial peptide Bac7 by deep mutational scanning” (BMC Biology, 2022).

The test system of the data set is Escherichia coli TOP10. Briefly: shrunken log2 fold change of peptide-encoding DNA abundance (4.5 h post-induction vs induction); higher = less antimicrobial activity (less host growth inhibition). The following applies: time post-induction: 4.5 h; library: site-saturation at positions 5, 18, 19, 20.
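Further: peptides expressed intracellularly from a pBAD plasmid library in pooled LB shake-flask culture, induced with 0.3% L-arabinose, DNA abundance read by NGS, three biological replicates, DESeq2 with apeglm shrinkage.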

In the case of RRIRHRPPRLPRPRPRPMMLPRP, the “shrunken log2 fold change” value is -0.286.
The result for RRIRQRPPRLPRPRPRPFKDPRP reads -0.126.
For RRIRHRPPRLPRPRPRPIKMPRP the value was -0.0865.
The result for RRIRSRPPRLPRPRPRPQYFPRP reads -0.18; that for RRIRQRPPRLPRPRPRPHTIPRP, -0.412.
In the case of RRIRKRPPRLPRPRPRPCNSPRP, the “shrunken log2 fold change” value is -0.0179.
In the case of RRIRCRPPRLPRPRPRPCGYPRP, the “shrunken log2 fold change” value was -0.144.
For RRIRERPPRLPRPRPRPYLDPRP the value was -0.149.
The result for RRIRVRPPRLPRPRPRPDERPRP reads 0.139; that for RRIRNRPPRLPRPRPRPKLGPRP, 0.055; that for RRIRFRPPRLPRPRPRPSDTPRP, -0.308.
Turning to RRIRWRPPRLPRPRPRPKVTPRP, the “shrunken log2 fold change” value is -0.165.
The result for RRIRARPPRLPRPRPRPEIFPRP reads 0.273; that for RRIRLRPPRLPRPRPRPSAAPRP, 0.419; that for RRIRPRPPRLPRPRPRPFKWPRP, 0.0103.
As for RRIRSRPPRLPRPRPRPCVMPRP, the “shrunken log2 fold change” value was 0.0389.
Turning to RRIRPRPPRLPRPRPRPWPPPRP, the “shrunken log2 fold change” value worked out at 0.504.
Take RRIRTRPPRLPRPRPRPEVEPRP: the “shrunken log2 fold change” value came out at 0.0992.
Take RRIRARPPRLPRPRPRPQKVPRP: the “shrunken log2 fold change” value amounted to 0.0196.
Regarding RRIRSRPPRLPRPRPRPIEGPRP, the “shrunken log2 fold change” value is -0.0107.
The result for RRIRRRPPRLPRPRPRPLARPRP reads 0.153; that for RRIRWRPPRLPRPRPRPLGPPRP, 0.478; that for RRIRWRPPRLPRPRPRPFRSPRP, -0.128.
As for RRIRLRPPRLPRPRPRPKASPRP, the “shrunken log2 fold change” value was -0.231.
For RRIRQRPPRLPRPRPRPPKQPRP the value was -0.0279; for RRIRPRPPRLPRPRPRPTPYPRP, -0.0196.
The result for RRIRSRPPRLPRPRPRPYCLPRP reads -0.434; that for RRIRKRPPRLPRPRPRPVMCPRP, 0.0989.
For the sequence RRIRPRPPRLPRPRPRPQIMPRP, the “shrunken log2 fold change” value is -0.265.
Turning to RRIRVRPPRLPRPRPRPPAEPRP, the “shrunken log2 fold change” value was determined as 0.253.
As for RRIRCRPPRLPRPRPRPDEGPRP, the “shrunken log2 fold change” value was -0.00232.
In the case of RRIRYRPPRLPRPRPRPREFPRP, the “shrunken log2 fold change” value turned out to be 0.163.
Regarding RRIRTRPPRLPRPRPRPSYMPRP, the “shrunken log2 fold change” value was -1.28.
The result for RRIRLRPPRLPRPRPRPTIRPRP reads -0.0201; that for RRIRYRPPRLPRPRPRPPHKPRP, -0.549; that for RRIRRRPPRLPRPRPRPPHPPRP, 0.886.
Regarding RRIRKRPPRLPRPRPRPWIHPRP, the “shrunken log2 fold change” value was -0.145.
For RRIRKRPPRLPRPRPRPGLNPRP the value was 0.0896.
As for RRIRTRPPRLPRPRPRPSRIPRP, the “shrunken log2 fold change” value is -0.179.
The result for RRIRKRPPRLPRPRPRPMTTPRP reads 0.31; that for RRIRARPPRLPRPRPRPMDKPRP, 0.0591; that for RRIRWRPPRLPRPRPRPWTQPRP, 0.272.
For RRIRWRPPRLPRPRPRPTWLPRP the value was 0.694; for RRIRDRPPRLPRPRPRPQTEPRP, 0.125; for RRIRYRPPRLPRPRPRPHCQPRP, -0.297.
For RRIRFRPPRLPRPRPRPEIWPRP the value was 0.217; for RRIRPRPPRLPRPRPRPFGDPRP, -0.0184; for RRIRYRPPRLPRPRPRPHSIPRP, -0.311.
Take RRIRARPPRLPRPRPRPPVFPRP: the “shrunken log2 fold change” value was determined as 0.416.
The result for RRIRMRPPRLPRPRPRPWQQPRP reads -0.0113; that for RRIRDRPPRLPRPRPRPQGPPRP, 0.0365; that for RRIRWRPPRLPRPRPRPCPKPRP, -0.0941.
For RRIRRRPPRLPRPRPRPPCDPRP the value was 1.03; for RRIRHRPPRLPRPRPRPDMAPRP, -0.0459.
The result for RRIRVRPPRLPRPRPRPAHCPRP reads 0.122.
For the sequence RRIRQRPPRLPRPRPRPEWTPRP, the “shrunken log2 fold change” value was -0.00618.
The result for RRIRMRPPRLPRPRPRPLQSPRP reads 2.75.
On to RRIRMRPPRLPRPRPRPEVHPRP, for which the “shrunken log2 fold change” value was -0.0544.
For the sequence RRIRWRPPRLPRPRPRPHHQPRP, the “shrunken log2 fold change” value was -0.316.
For RRIRPRPPRLPRPRPRPGKTPRP the value was 0.294.
Regarding RRIRIRPPRLPRPRPRPCKQPRP, the “shrunken log2 fold change” value was -0.0506.
The result for RRIRERPPRLPRPRPRPLNWPRP reads -0.373; that for RRIRPRPPRLPRPRPRPECMPRP, 0.212.
The result for RRIRCRPPRLPRPRPRPYLIPRP reads -0.233; that for RRIRARPPRLPRPRPRPADKPRP, 0.197.
The result for RRIRYRPPRLPRPRPRPPFTPRP reads -0.244; that for RRIRFRPPRLPRPRPRPDLRPRP, -0.108.
In the case of RRIRVRPPRLPRPRPRPTTFPRP, the “shrunken log2 fold change” value was -0.118.
As for RRIRIRPPRLPRPRPRPYIPPRP, the “shrunken log2 fold change” value is -0.92.
In the case of RRIRVRPPRLPRPRPRPLKPPRP, the “shrunken log2 fold change” value was -0.0393.
For RRIRSRPPRLPRPRPRPALPPRP the value was 0.26.
For RRIRMRPPRLPRPRPRPNNCPRP the value was -0.167; for RRIRLRPPRLPRPRPRPEQSPRP, -0.0314.
Take RRIRTRPPRLPRPRPRPSMRPRP: the “shrunken log2 fold change” value was -0.107.
Take RRIRTRPPRLPRPRPRPPHAPRP: the “shrunken log2 fold change” value was 0.312.
For the sequence RRIRRRPPRLPRPRPRPFICPRP, the “shrunken log2 fold change” value was -0.0336.
For RRIRWRPPRLPRPRPRPKGPPRP the value was 3.65; for RRIRGRPPRLPRPRPRPTYVPRP, -0.144.
For RRIRRRPPRLPRPRPRPEAYPRP the value was 0.15.
For RRIRFRPPRLPRPRPRPGVRPRP the value was -0.118.
With RRIRTRPPRLPRPRPRPSNFPRP, the “shrunken log2 fold change” value is -0.0603.
For RRIRGRPPRLPRPRPRPICDPRP the value was 0.717; for RRIRIRPPRLPRPRPRPTNSPRP, -0.827.
For RRIRNRPPRLPRPRPRPQQRPRP the value was -0.0535.
The result for RRIRLRPPRLPRPRPRPWNTPRP reads -0.444; that for RRIRLRPPRLPRPRPRPWNNPRP, -0.225; that for RRIRIRPPRLPRPRPRPPVKPRP, -0.156.
For RRIRQRPPRLPRPRPRPALRPRP, the “shrunken log2 fold change” value is -0.00883.
For the sequence RRIRARPPRLPRPRPRPDRVPRP, the “shrunken log2 fold change” value is -0.0545.
For the sequence RRIRERPPRLPRPRPRPDCTPRP, the “shrunken log2 fold change” value was found to be 0.104.
For RRIRYRPPRLPRPRPRPGMLPRP the value was -0.139; for RRIRNRPPRLPRPRPRPSMHPRP, -0.805; for RRIRMRPPRLPRPRPRPETKPRP, 0.253.
For RRIRYRPPRLPRPRPRPPQQPRP the value was 0.0729; for RRIRWRPPRLPRPRPRPVMMPRP, -0.385.
For RRIRCRPPRLPRPRPRPEKGPRP the value was 0.0373; for RRIRLRPPRLPRPRPRPAIFPRP, -0.391; for RRIRNRPPRLPRPRPRPLRIPRP, 0.0934.
Turning to RRIRHRPPRLPRPRPRPWWPPRP, the “shrunken log2 fold change” value was -0.0995.
For RRIRFRPPRLPRPRPRPSNCPRP the value was -0.529; for RRIRLRPPRLPRPRPRPHALPRP, -0.396; for RRIRNRPPRLPRPRPRPLERPRP, 0.0661.
Consider RRIRPRPPRLPRPRPRPEAYPRP, for which the “shrunken log2 fold change” value came out at 0.00183.
With RRIRDRPPRLPRPRPRPRVLPRP, the “shrunken log2 fold change” value worked out at 0.173.
Consider RRIRNRPPRLPRPRPRPDVNPRP, for which the “shrunken log2 fold change” value is -0.00804.
In the case of RRIRARPPRLPRPRPRPKYIPRP, the “shrunken log2 fold change” value was -0.536.
Turning to RRIRERPPRLPRPRPRPNMSPRP, the “shrunken log2 fold change” value was -0.179.
For RRIRFRPPRLPRPRPRPLVHPRP the value was -0.298; for RRIRGRPPRLPRPRPRPHTFPRP, -0.0226; for RRIRTRPPRLPRPRPRPRWGPRP, 0.164.
With RRIRLRPPRLPRPRPRPTCSPRP, the “shrunken log2 fold change” value is -0.0337.
For the sequence RRIRTRPPRLPRPRPRPQMLPRP, the “shrunken log2 fold change” value is -0.0274.
For RRIRKRPPRLPRPRPRPEHQPRP the value was 0.163; for RRIRSRPPRLPRPRPRPALKPRP, 0.161; for RRIRWRPPRLPRPRPRPLGNPRP, -0.14.
For RRIRDRPPRLPRPRPRPPPSPRP the value was 0.838; for RRIRHRPPRLPRPRPRPIKCPRP, -0.87.
For RRIRNRPPRLPRPRPRPKSSPRP the value was -0.0182; for RRIRKRPPRLPRPRPRPSVYPRP, -0.0427; for RRIRCRPPRLPRPRPRPEQYPRP, -0.322.
On to RRIRARPPRLPRPRPRPVRGPRP, for which the “shrunken log2 fold change” value was determined as 0.945.
With RRIRNRPPRLPRPRPRPPARPRP, the “shrunken log2 fold change” value turned out to be 0.746.
With RRIRTRPPRLPRPRPRPGLDPRP, the “shrunken log2 fold change” value was found to be 0.0222.
For RRIRRRPPRLPRPRPRPSGSPRP the value was -0.0977; for RRIRARPPRLPRPRPRPCRQPRP, -0.0784.
